The values below come from US20070071764A1.

Where two headings read alike, the source gives them in different places. Where no end group is shown, it is not given here.

Common to all, as to assay: cell-based or functional assay
In experiment [1] the target is human Kv1.3 channel (human) (UniProt P22001).
Experiment [2] addresses human Kv1.1 channel (human) (UniProt Q09470).
For experiment [3], the target named is human Kv1.3 channel (human) (UniProt P22001). The source holds these as a separate data set.

Sequence of human Kv1.3 channel (human) (P22001 whole entry): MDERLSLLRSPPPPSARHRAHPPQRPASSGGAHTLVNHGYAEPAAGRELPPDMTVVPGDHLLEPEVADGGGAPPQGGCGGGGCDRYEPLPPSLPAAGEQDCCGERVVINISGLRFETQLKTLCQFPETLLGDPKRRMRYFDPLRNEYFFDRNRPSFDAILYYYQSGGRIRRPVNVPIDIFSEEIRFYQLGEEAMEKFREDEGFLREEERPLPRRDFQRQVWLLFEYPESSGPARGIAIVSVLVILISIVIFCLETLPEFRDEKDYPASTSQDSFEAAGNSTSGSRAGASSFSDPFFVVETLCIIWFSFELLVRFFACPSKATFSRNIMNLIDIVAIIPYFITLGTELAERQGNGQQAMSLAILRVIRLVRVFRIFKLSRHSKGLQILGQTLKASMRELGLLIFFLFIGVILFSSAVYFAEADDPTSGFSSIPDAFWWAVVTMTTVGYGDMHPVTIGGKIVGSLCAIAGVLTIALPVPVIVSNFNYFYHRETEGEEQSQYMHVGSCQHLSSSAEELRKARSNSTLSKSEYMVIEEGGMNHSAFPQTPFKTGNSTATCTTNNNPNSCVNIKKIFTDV
Sequence of human Kv1.1 channel (human) (Q09470 whole entry): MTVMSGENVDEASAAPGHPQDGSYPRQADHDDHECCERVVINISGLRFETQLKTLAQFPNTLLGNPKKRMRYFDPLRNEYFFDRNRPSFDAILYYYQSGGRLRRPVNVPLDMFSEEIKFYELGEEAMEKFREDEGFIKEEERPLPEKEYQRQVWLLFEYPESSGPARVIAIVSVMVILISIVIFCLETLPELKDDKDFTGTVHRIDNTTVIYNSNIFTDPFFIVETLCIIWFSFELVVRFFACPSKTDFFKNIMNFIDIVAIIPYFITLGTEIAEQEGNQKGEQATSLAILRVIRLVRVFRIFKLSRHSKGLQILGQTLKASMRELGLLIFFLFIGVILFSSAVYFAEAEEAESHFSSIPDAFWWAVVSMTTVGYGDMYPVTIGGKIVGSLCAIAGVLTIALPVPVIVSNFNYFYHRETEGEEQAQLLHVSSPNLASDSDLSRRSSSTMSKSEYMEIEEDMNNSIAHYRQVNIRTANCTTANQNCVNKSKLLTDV

In experiment [1], PEG-OSK1 (peptide) yielded a peak IC50 (whole-cell patch clamp, HEK293 stably expressing human Kv1.3) of 1.28 nM.

For Synthetic OSK1 toxin peptide, the hKv1.1: IC50 (electrophysiology, HEK293) in experiment [2] amounted to 160 pM. In experiment [1], the hKv1.3: IC50 (whole-cell patch clamp, HEK293) was 0.039 nM and the selectivity ratio hKv1.1/hKv1.3 (IC50 on hKv1.1 over IC50 on hKv1.3) turned out to be 4.

The molecule Fc-L25-ShK[2-35] peptibody (Fc fusion) came in with an IC50, whole cell patch clamp electrophysiology on HEK293/Kv1.3 cells in experiment [1] of 150 pM.

In experiment [2], “Fc-L10-OSK1 (CHO-derived peptibody) (Fc fusion)” came in with a hKv1.1: IC50 (electrophysiology, HEK293) of 41600 pM.

B1: 20K PEG-ShK[1-35] (peptide)
peptide: RSCIDTIPKSRCTAFQCKHSMKYRLSFCRKTCGTC
modifications: not fully specified (N-terminus); ends and bridges not checked
With B1, in experiment [3], the peak IC50 (whole-cell patch clamp, HEK293 stably expressing human Kv1.3) worked out at 0.169 nM.
